# System: Escherichia coli TOP10
# Assay: shrunken log2 fold change of peptide-encoding DNA abundance (4.5 h post-induction vs induction); higher = less antimicrobial activity (less host growth inhibition)
# Settings: time post-induction: 4.5 h; library: site-saturation at positions 5, 18, 19, 20
# 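Note: peptides expressed intracellularly from a pBAD plasmid library in pooled LB shake-flask culture, induced with 0.3% L-arabinose, DNA abundance read by NGS, three biological replicates, DESeq2 with apeglm shrinkage.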
row,Sequence,shrunken log2 fold change
1,RRIRCRPPRLPRPRPRPKDNPRP,-0.273
2,RRIRIRPPRLPRPRPRPISQPRP,-0.961
3,RRIRHRPPRLPRPRPRPRMNPRP,-0.197
4,RRIRQRPPRLPRPRPRPMMAPRP,0.216
5,RRIRIRPPRLPRPRPRPKHMPRP,-0.451
6,RRIRMRPPRLPRPRPRPTMYPRP,0.187
7,RRIRWRPPRLPRPRPRPIHRPRP,-0.0434
8,RRIRDRPPRLPRPRPRPESFPRP,-0.0579
9,RRIRSRPPRLPRPRPRPHYQPRP,-0.357
10,RRIRFRPPRLPRPRPRPWRQPRP,-0.103
11,RRIRMRPPRLPRPRPRPGICPRP,0.507
12,RRIRKRPPRLPRPRPRPPMHPRP,0.636
13,RRIRWRPPRLPRPRPRPMFAPRP,0.216
14,RRIRHRPPRLPRPRPRPQFLPRP,-0.653
15,RRIRFRPPRLPRPRPRPAGIPRP,-0.161
16,RRIRIRPPRLPRPRPRPTLSPRP,-0.0751
17,RRIRFRPPRLPRPRPRPKMGPRP,-0.122
18,RRIRTRPPRLPRPRPRPCWNPRP,0.00718
19,RRIRTRPPRLPRPRPRPQSTPRP,-0.236
20,RRIRFRPPRLPRPRPRPVTAPRP,-0.0836
21,RRIRTRPPRLPRPRPRPECPPRP,0.151
22,RRIRIRPPRLPRPRPRPLKRPRP,-0.0843
23,RRIRKRPPRLPRPRPRPAPFPRP,0.659
24,RRIRWRPPRLPRPRPRPLSYPRP,-0.243
25,RRIRLRPPRLPRPRPRPCPLPRP,-0.333

row,Sequence,shrunken log2 fold change
1,RRIRYRPPRLPRPRPRPITGPRP,0.0176
2,RRIRMRPPRLPRPRPRPGQFPRP,0.0853
3,RRIRMRPPRLPRPRPRPTHRPRP,0.929
4,RRIRVRPPRLPRPRPRPEVQPRP,0.148
5,RRIRERPPRLPRPRPRPHGFPRP,-0.0632
6,RRIRERPPRLPRPRPRPKNRPRP,0.103
7,RRIRDRPPRLPRPRPRPIRMPRP,-0.0588
8,RRIRDRPPRLPRPRPRPGEEPRP,0.0844
9,RRIRNRPPRLPRPRPRPWRRPRP,-0.0717
10,RRIRWRPPRLPRPRPRPWKPPRP,-0.732
11,RRIRARPPRLPRPRPRPWGGPRP,0.605
12,RRIRSRPPRLPRPRPRPDCQPRP,0.117
13,RRIRNRPPRLPRPRPRPWLRPRP,-0.0603
14,RRIRRRPPRLPRPRPRPTDTPRP,-0.11
15,RRIRYRPPRLPRPRPRPWGAPRP,-0.315
16,RRIRCRPPRLPRPRPRPCLQPRP,-0.129
17,RRIRYRPPRLPRPRPRPFFQPRP,-0.428
18,RRIRFRPPRLPRPRPRPLVHPRP,-0.298
19,RRIRCRPPRLPRPRPRPFQDPRP,-0.169
20,RRIRYRPPRLPRPRPRPELFPRP,-0.0192
21,RRIRVRPPRLPRPRPRPKEGPRP,0.0282
22,RRIRWRPPRLPRPRPRPEKYPRP,-0.357
23,RRIRQRPPRLPRPRPRPKSHPRP,-0.0261
24,RRIRFRPPRLPRPRPRPTYKPRP,-0.42
25,RRIRIRPPRLPRPRPRPLAAPRP,0.255

row,Sequence,shrunken log2 fold change
1,RRIRKRPPRLPRPRPRPRVHPRP,0.252
2,RRIRLRPPRLPRPRPRPGWLPRP,0.0878
3,RRIRTRPPRLPRPRPRPKMFPRP,-0.0043
4,RRIRQRPPRLPRPRPRPGQQPRP,-0.0212
5,RRIRMRPPRLPRPRPRPWTFPRP,0.055
6,RRIRQRPPRLPRPRPRPRSCPRP,0.268
7,RRIRQRPPRLPRPRPRPNRDPRP,-0.178
8,RRIRIRPPRLPRPRPRPTLCPRP,0.0503
9,RRIRVRPPRLPRPRPRPCMKPRP,-0.104
10,RRIRTRPPRLPRPRPRPGATPRP,0.572
11,RRIRQRPPRLPRPRPRPFWSPRP,-0.00402
12,RRIRHRPPRLPRPRPRPYFEPRP,-0.76
13,RRIRMRPPRLPRPRPRPIIVPRP,-0.0119
14,RRIRRRPPRLPRPRPRPCPPPRP,0.0965
15,RRIRRRPPRLPRPRPRPGTTPRP,0.462
16,RRIRRRPPRLPRPRPRPCHGPRP,-0.589
17,RRIRKRPPRLPRPRPRPEQVPRP,0.158
18,RRIRLRPPRLPRPRPRPAAGPRP,0.312
19,RRIRQRPPRLPRPRPRPKNKPRP,-0.29
20,RRIRGRPPRLPRPRPRPQNYPRP,-0.153
21,RRIRARPPRLPRPRPRPMWTPRP,0.0207
22,RRIRKRPPRLPRPRPRPHNRPRP,-0.137
23,RRIRCRPPRLPRPRPRPLSTPRP,-0.229
24,RRIRQRPPRLPRPRPRPNFGPRP,-0.0871
25,RRIRHRPPRLPRPRPRPCHQPRP,-0.601

# From the supplement of paper PMC9112550, “Optimization of the antimicrobial peptide Bac7 by deep mutational scanning” (BMC Biology, 2022)
